The record followed here is patent US20050170504.

In the data set the target is TmHU (HU protein) (Thermotoga maritima) (UniProt P36206). As to the kind of experiment: SPR. Particulars: transition midpoint of Hill curve, 50 mM sodium phosphate pH 7.5, 100 mM NaCl.
Sequence of UniProt P36206 (P36206 other isoform, or with tags, fused parts or gaps): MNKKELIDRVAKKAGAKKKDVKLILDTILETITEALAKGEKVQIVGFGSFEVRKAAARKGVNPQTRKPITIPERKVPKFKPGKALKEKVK

Take 56 bp dsDNA fragment: where the note is “Hill coefficient 7.6”, the Kd worked out at 73 nM.
Under “Hill coefficient 1.3”, 23 bp dsDNA fragment had a Kd of 73 nM.

The term Kd denotes a measure of binding affinity in units of concentration. Lower therefore signals tighter binding.
